In PMC9439264 one finds stoichiometry N data, which are given here for one substance.

As a reminder, the stoichiometry N is the number of molecules, sites or subunits per partner or assembly.

In the test the target is HA trimer of A/Beijing/262/1995 (H1N1), thrombin- and trypsin-treated, for the immune complex (Influenza A virus A/Beijing/262/1995 (H1N1)). The experiment in a line: cryo-EM structure; 12H5 Fab with thrombin- and trypsin-treated BJ/1995 HA trimer.

As to “HA trimer of A/Beijing/262/1995 (H1N1), thrombin- and trypsin-treated, for the immune complex”, the stoichiometry N came to 3.
